The text below walks through data of patent publication US20180057589A1 (Genentech, published 2018).

In one assay the target is T1, Mouse Notch2-NRR-FLAG (mouse, UniProt O35516 1306-1678).
T1 construct: Whole tagged antigen construct; also called murine Notch2 NRR; mNotch2 NRR
T1 sequence: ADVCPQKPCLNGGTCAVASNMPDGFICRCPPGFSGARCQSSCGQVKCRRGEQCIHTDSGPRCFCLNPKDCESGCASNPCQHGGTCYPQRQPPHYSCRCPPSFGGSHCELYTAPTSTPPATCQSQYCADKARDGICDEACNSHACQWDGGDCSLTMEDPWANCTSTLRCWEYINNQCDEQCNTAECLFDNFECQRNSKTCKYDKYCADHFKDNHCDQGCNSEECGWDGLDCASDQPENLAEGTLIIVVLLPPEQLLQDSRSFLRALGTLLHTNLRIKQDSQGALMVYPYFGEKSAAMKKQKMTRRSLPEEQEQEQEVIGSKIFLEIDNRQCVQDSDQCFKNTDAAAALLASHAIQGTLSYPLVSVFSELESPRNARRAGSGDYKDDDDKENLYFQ
In words: SPR (BIAcore-3000), IgG captured by anti-human IgG, Notch2 NRR injected; mouse Notch2 NRR antigen. The method, then: (§1) For kinetics measurements, two-fold serial dilutions of human and mouse Notch2 NRR (3.9 nM to 500 nM) were injected in PBT buffer (PBS with 0.05% Tween 20) at 25° C. with a flow rate of 30 μl/min. Association rates (kₒₙ) and dissociation rates (koff) were calculated using a simple one-to-one Langmuir binding model (BIAcore Evaluation Software version 3.2). The equilibrium dissociation constant (KD) was calculated as the ratio koff/kₒₙ.
A general note: SPR reads the build-up and loss of mass on a sensor chip optically.

Assay [1] addresses T2, FLAG-Human-Notch2-NRR-6xHis (human, UniProt Q04721 1306-1676).
T2 construct: Whole tagged antigen construct; also called NRR2; hNotch2 NRR
T2 sequence: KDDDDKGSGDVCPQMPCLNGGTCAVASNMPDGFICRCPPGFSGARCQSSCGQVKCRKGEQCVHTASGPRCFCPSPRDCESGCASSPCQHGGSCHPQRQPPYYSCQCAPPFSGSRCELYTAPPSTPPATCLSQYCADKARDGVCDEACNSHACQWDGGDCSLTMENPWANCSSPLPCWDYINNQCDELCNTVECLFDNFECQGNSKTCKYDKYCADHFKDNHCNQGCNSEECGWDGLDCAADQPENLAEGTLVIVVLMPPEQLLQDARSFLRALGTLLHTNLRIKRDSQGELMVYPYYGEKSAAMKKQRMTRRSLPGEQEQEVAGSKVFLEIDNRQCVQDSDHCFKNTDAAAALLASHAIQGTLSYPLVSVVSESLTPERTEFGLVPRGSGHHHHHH
Kind of assay: SPR (BIAcore-3000), IgG captured by anti-human IgG, Notch2 NRR injected; human Notch2 NRR antigen. The method, then:
as §1

The target of another assay is T3, mouse Notch3-NRR protein (mouse, UniProt Q61982 1385-1641, limits assumed).
T3 construct: domain: NRR; also called mNotch3 NRR
T3 sequence (looked up): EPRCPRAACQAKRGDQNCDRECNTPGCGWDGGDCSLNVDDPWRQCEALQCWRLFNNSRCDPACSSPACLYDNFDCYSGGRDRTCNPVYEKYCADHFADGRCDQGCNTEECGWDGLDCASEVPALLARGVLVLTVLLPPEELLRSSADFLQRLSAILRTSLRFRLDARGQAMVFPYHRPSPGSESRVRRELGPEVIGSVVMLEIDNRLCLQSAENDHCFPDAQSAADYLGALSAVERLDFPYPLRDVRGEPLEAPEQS
Kind of assay: ELISA, lower panel: Flag-tagged NRR protein captured by anti-Flag antibody, titration of α-NRR2, A560. An excerpt: (§2) Anti-Flag antibody was used to capture Flag-Tagged NRR protein from all four Notch receptors in a black walled, high binding plate (Greiner). NRR antibody and E25 control antibodies were bound to the NRR proteins and washed away with PBS. An Alkaline Phosphate conjugated anti-human (H+L) secondary antibody (Jackson ImmunoResearch) was used to detect bound anti-NRR and E25. Unbound secondary was washed away and AP was detected with PNPP substrate (Pierce).

Another assay has as its target T4, human Notch4-NRR protein (human, UniProt Q99466 1172-1445, limits assumed).
T4 construct: domain: NRR; also called hNotch4 NRR
T4 sequence (looked up): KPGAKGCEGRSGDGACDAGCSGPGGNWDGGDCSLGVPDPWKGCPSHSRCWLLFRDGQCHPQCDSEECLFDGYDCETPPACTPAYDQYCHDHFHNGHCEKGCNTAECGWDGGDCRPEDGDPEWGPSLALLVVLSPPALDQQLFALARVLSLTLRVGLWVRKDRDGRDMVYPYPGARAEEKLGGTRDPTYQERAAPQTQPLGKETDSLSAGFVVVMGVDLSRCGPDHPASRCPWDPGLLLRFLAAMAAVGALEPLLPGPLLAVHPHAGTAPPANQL
The description is as above.
Description: as §2

A further assay addresses T5, mouse Notch1 NRR protein (mouse, UniProt Q01705 1446-1723).
T5 construct: Purified NRR fragment (Flag-tagged in the ELISA); also called mNotch1 NRR
T5 sequence: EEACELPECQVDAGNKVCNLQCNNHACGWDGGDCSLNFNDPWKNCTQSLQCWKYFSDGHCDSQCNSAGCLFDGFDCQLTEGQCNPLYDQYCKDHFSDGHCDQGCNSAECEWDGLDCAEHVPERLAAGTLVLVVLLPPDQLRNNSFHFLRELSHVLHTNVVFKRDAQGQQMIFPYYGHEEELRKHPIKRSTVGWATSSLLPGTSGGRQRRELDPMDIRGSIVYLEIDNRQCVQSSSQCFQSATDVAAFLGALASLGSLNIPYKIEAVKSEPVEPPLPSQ
The description is as above.
Description: as §2

The target in a further assay is T6, human Notch1 NRR protein (human, UniProt P46531 1446-1733).
T6 construct: Purified NRR fragment (Flag-tagged in the ELISA); also called NRR1; hNotch1 NRR
T6 sequence: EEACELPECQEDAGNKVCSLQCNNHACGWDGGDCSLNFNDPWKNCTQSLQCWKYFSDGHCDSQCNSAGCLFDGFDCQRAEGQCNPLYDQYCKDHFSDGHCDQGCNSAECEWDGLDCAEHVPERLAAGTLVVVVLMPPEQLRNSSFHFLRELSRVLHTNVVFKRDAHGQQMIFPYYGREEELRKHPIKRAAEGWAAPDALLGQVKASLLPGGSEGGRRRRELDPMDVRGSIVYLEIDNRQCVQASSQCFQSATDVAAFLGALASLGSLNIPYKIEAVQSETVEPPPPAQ
The assay is described as above.
Description: as §2

For the next assay, the target named is T7, mouse Notch4-NRR protein (mouse, UniProt P31695 1168-1441, limits assumed).
T7 construct: domain: NRR; also called mNotch4 NRR
T7 sequence (looked up): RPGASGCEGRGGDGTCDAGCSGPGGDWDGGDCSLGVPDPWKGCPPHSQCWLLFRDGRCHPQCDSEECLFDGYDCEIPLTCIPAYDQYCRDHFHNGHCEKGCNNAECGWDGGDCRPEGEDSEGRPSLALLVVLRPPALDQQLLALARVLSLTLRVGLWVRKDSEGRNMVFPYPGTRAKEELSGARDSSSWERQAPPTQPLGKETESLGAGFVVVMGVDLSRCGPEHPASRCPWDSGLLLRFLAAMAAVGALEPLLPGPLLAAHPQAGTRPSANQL
The assay is described as above.
Description: as §2

Another assay deals with T8, human Notch3-NRR protein (human, UniProt Q9UM47 1384-1641, limits assumed).
T8 construct: domain: NRR; also called hNotch3 NRR
T8 sequence (looked up): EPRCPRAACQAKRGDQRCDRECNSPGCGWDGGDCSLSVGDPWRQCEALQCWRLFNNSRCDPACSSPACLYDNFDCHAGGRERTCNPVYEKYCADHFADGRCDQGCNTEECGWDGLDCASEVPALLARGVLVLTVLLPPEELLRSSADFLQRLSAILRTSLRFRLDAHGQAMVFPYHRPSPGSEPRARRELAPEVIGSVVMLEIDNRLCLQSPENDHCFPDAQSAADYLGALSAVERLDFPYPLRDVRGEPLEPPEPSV
Described as above.
Description: as §2

Assay [2] addresses T2, FLAG-Human-Notch2-NRR-6xHis. Kind of assay: ELISA, lower panel: Flag-tagged NRR protein captured by anti-Flag antibody, titration of α-NRR2, AP-conjugated anti-human secondary antibody, A560.
Description: as §2
Background: In an ELISA, binding on a coated surface is turned into a signal by an enzyme label.

B1: Antibody D-3 (antibody, V domains shown)
VH: EVQLVESGGGLVQPGGSLRLSCAASGYTFSSYGMSWVRQAPGKGLEWVSYIYPYSGATYYADSVKGRFTISADTSKNTAYLQMNSLRAEDTAVYYCARHSGYYRISSAMDVWGQGTLVTVSA
VL: DIQMTQSPSSLSASVGDRVTITCRASQNIKRFLAWYQQKPGKAPKLLIYGASTRESGVPSRFSGSGSGTDFTLTISSLQPEDFATYYCQQYYRSPHTFGQGTKVEIKR
notes: also called anti-NRR2; α-NRR2
Regarding B1, the Kd (in the assay with Mouse Notch2-NRR-FLAG; in assay [1]) was 5 nM in each case. The binding result in the assay with mouse Notch3-NRR protein, with human Notch4-NRR protein, in the assay with mouse Notch1 NRR protein, with human Notch1 NRR protein, with mouse Notch4-NRR protein and with human Notch3-NRR protein was “no binding (tested: 10 ug/ml)” in each case. Also, the EC50 (read off the curve) (as a rule, the midpoint of the concentration-response curve) in assay [2] was roughly 0.03 µg/mL.
